Results taken from paper PMC8705320.

Columns and labels:
[1] = molecular target: human cathepsin L (human) (UniProt P07711); experiment: enzyme inhibition kinetics (Dixon plot); cathepsin L 0.4 nM; Cystatin-Hv 8, 16 and 24 nM; Z-FR-AMC substrate at 1 Km and 2 Km; 50 mM sodium phosphate, 200 mM NaCl, 5 mM EDTA, pH 5.5, 6 mM DTT preactivation; 37 °C; fluorescence read each minute for 15 min
[2] = molecular target: papain (UniProt P00784)
UniProt P00784, sequence (P00784 134-345): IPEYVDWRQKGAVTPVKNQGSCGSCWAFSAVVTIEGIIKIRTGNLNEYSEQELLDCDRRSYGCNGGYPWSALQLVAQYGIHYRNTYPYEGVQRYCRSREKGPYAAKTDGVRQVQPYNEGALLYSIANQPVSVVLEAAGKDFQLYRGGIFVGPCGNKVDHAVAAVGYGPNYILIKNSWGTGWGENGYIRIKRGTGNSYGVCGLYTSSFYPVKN

Cystatin-Hv (recombinant cystatin of the leech Haementeria vizottoi) (natural protein)
Ki [1]: 7.9 nM
IC50 of inhibition of papain activity (papain 21.4 nmol/L or 50 ng, 5 µM Z-FR-MCA substrate; 1, 5, 10 and 15 µg of pool 2 from ion-exchange chromatography) [2]: 120 nM
